# From US20220406376A1 (MacroGenics, published 2022)
# B1: DART-3 (bispecific antibody)
# chain 1: not shown
# chain 2: DIQMTQSPSTLSASVGDRVTITCRASQSVGYMHWYQQKPGKAPKLLIYDTSKLASGVPSRFSGSGSGTEFTLTISSLQPDDFATYYCFQGSGYPFTFGGGTKLEIKGGGSGGGGQVQLVQSGAEVKKPGASVKVSCKASGYTFTNYGMNWVRQAPGQGLEWMGWINTNIGEPTYTEEFKGRVTMTRDTSISTAYMELSRLRSDDTAVYYCARDDGYGNRVSYWGQGTLVTVSSGGCGGGKVAACKEKVAALKEKVAALKEKVAALKE
# notes: also called HER2×RSV control molecule; HER2/neu×RSV control molecule
# B2: DART-6 (bispecific antibody, human IgG1, kappa, L234A L235A)
# heavy: QVTLRESGPALVKPTQTLTLTCTFSGFSLSTSGMSVGWIRQPPGKALEWLADIWWDDKKDYNPSLKSRLTISKDTSKNQVVLKVTNMDPADTATYYCARSMITNWYFDVWGAGTTVTVSSASTKGPSVFPLAPSSKSTSGGTAALGCLVKDYFPEPVTVSWNSGALTSGVHTFPAVLQSSGLYSLSSVVTVPSSSLGTQTYICNVNHKPSNTKVDKRVEPKSCDKTHTCPPCPAPEAAGGPSVFLFPPKPKDTLMISRTPEVTCVVVDVSHEDPEVKFNWYVDGVEVHNAKTKPREEQYNSTYRVVSVLTVLHQDWLNGKEYKCKVSNKALPAPIEKTISKAKGQPREPQVYTLPPSREEMTKNQVSLSCAVKGFYPSDIAVEWESNGQPENNYKTTPPVLDSDGSFFLVSKLTVDKSRWQQGNVFSCSVMHEALHNRYTQKSLSLSPGK
# light: DIQMTQSPSTLSASVGDRVTITCRASQSVGYMHWYQQKPGKAPKLLIYDTSKLASGVPSRFSGSGSGTEFTLTISSLQPDDFATYYCFQGSGYPFTFGGGTKLEIKRTVAAPSVFIFPPSDEQLKSGTASVVCLLNNFYPREAKVQWKVDNALQSGNSQESVTEQDSKDSTYSLSSTLTLSKADYEKHKVYACEVTHQGLSSPVTKSFNRGEC
# chain 1: QVTLRESGPALVKPTQTLTLTCTFSGFSLSTSGMSVGWIRQPPGKALEWLADIWWDDKKDYNPSLKSRLTISKDTSKNQVVLKVTNMDPADTATYYCARSMITNWYFDVWGAGTTVTVSSASTKGPSVFPLAPSSKSTSGGTAALGCLVKDYFPEPVTVSWNSGALTSGVHTFPAVLQSSGLYSLSSVVTVPSSSLGTQTYICNVNHKPSNTKVDKRVEPKSCDKTHTCPPCPAPEAAGGPSVFLFPPKPKDTLMISRTPEVTCVVVDVSHEDPEVKFNWYVDGVEVHNAKTKPREEQYNSTYRVVSVLTVLHQDWLNGKEYKCKVSNKALPAPIEKTISKAKGQPREPQVYTLPPSREEMTKNQVSLWCLVKGFYPSDIAVEWESNGQPENNYKTTPPVLDSDGSFFLYSKLTVDKSRWQQGNVFSCSVMHEALHNHYTQKSLSLSPGGGGSGGGSGGGDIQMTQTTSSLSASLGDRVTISCRPSQDISNYLNWYQQKPDGTVKLLIYYTSRLRSGVPSRFSGSGSGTDYSLTISNLEQEDIATYFCQQGDTLPYTFGGGTKLEIKGGGSGGGGQVQLQQPGAELVRPGASVKLSCKASGYTFTSYWINWVKQRPGQGLEWIGNIYPSDSYTNYNQKFKDKATLTVDKSSSTAYMQLSSPTSEDSAVYYCTRDYGSSYSFDYWGQGTTLTVSSGGCGGGEVAALEKEVAALEKEVAALEKEVAALEK
# chain 2: DIQMTQTTSSLSASLGDRVTISCRPSQDISNYLNWYQQKPDGTVKLLIYYTSRLRSGVPSRFSGSGSGTDYSLTISNLEQEDIATYFCQQGDTLPYTFGGGTKLEIKGGGSGGGGQVQLQQPGAELVRPGASVKLSCKASGYTFTSYWINWVKQRPGQGLEWIGNIYPSDSYTNYNQKFKDKATLTVDKSSSTAYMQLSSPTSEDSAVYYCTRDYGSSYSFDYWGQGTTLTVSSGGCGGGKVAALKEKVAALKEKVAALKEKVAALKE
# notes: also called RSV×CD137 control molecule; CD137×RSV control molecule
# Columns and labels:
# [1] = target: T1, CD137 on the surface of cells (activated human T cells; engineered CHO cells) (human, UniProt Q07011 24-255); experiment: flow cytometry on activated pan T cells gated CD8, anti-hFc APC MFI
# T1 construct: whole, on cells; also called human CD137; cell surface expressed CD137
# [2] = target: T2, HER2/neu on the surface of target cells (N87, JIMT-1, MCF-7, MDA-MB231) (UniProt P04626 23-1255, limits assumed); experiment: flow cytometry on N87 cells, anti-hFc APC MFI
# T2 construct: whole, on cells
# Procedure: (§1) CD137×TA Binding Molecules, DART-B, DART-D, DART-G and the control molecules DART-3 and DART-6 were additionally evaluated for their ability to bind to HER2/neu expressed on N87 cells (FIG. 13A) and JIMT-1 cells (FIG. 13B). For such evaluation, 100 μL of HER2/neu expressing target cells (1.0×1⁰⁶ cells/mL) and 100 μL of serially diluted (5- or 10-fold dilutions) test article (bispecific diabody) were added to each well of microtiter assay plate(s), mixed and incubated at RT for 45 min. The cells were washed with FACS Buffer and secondary antibody (anti-human-Fc region-APC) was then added to each well; mixed and incubated at RT for 30 min. Cells were washed and resuspended in 100 μL FACS Buffer and analyzed by flow cytometry (BD LSR Fortessa or FACSCanto 11) for cell event collection. Data analysis were performed via FloJo v10.
# [3] = target: T2, HER2/neu on the surface of target cells …; experiment: flow cytometry on N87 gastric cancer cells, anti-hFc APC MFI
# [4] = target: T2, HER2/neu on the surface of target cells …; experiment: flow cytometry on JIMT-1 cells, anti-hFc APC MFI
# Procedure: as §1
# [5] = target: T1, CD137 on the surface of cells …; experiment: flow cytometry on activated pan T cells gated CD8, anti-hFc APC MFI; remark: listed apart in the source
# [6] = target: T1, CD137 on the surface of cells …; experiment: flow cytometry on activated CD8+ T cells (donor D53781, CD8 FITC), anti-hFc APC MFI
# [7] = target: T1, CD137 on the surface of cells …; experiment: flow cytometry on CD137-expressing CHO cells (CHO/137), anti-hFc APC MFI
# [8] = target: T1, CD137 on the surface of cells …; experiment: as above; remark: listed apart in the source
# [9] = target: T1, CD137 on the surface of cells …; experiment: flow cytometry on activated CD8+ T cells (CD8 FITC), anti-hFc APC MFI
# T1 sequence (Q07011 24-255, change not shown): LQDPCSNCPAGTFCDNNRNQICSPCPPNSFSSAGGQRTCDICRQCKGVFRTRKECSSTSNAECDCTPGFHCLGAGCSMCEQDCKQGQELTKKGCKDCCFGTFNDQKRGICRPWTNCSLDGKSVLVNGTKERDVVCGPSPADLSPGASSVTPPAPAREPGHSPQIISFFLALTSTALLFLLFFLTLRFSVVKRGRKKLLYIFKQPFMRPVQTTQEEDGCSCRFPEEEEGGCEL
Binder,binding result [1],EC50 (read off the curve) [2],EC50 (read off the curve) [3],EC50 (read off the curve) [4],EC50 (read off the curve) [1],EC50 (read off the curve) [5],EC50 (read off the curve) [6],EC50 (read off the curve) [7],EC50 (read off the curve) [8],EC50 (read off the curve) [9],binding result [3]
B1,no binding,~0.05 µg/mL,~0.5 nM,~0.03 µg/mL,,,,,,,
B2,,,,,~0.2 nM,~0.1 nM,~0.02 µg/mL,~0.02 µg/mL,~0.02 µg/mL,~0.02 µg/mL,no binding
